Results from patent US20250064988A1.
One block for each substance: values may come before it.

Assays:
[1] = target: Glycoprotein IIb (GPIIb, also known as antigen CD41) (UniProt P08514); test: flow cytometry, percent of FDPDs stained; batch 7
[2] = target: Glycoprotein IIb (GPIIb, also known as antigen CD41) (UniProt P08514); test: flow cytometry, percent of FDPDs stained; mean of 7 batches
[3] = target: Glycoprotein IIb (GPIIb, also known as antigen CD41) (UniProt P08514); test: flow cytometry, percent of FDPDs stained; batch 3
[4] = target: Glycoprotein IIb (GPIIb, also known as antigen CD41) (UniProt P08514); test: flow cytometry, percent of FDPDs stained; batch 5
[5] = target: Glycoprotein IIb (GPIIb, also known as antigen CD41) (UniProt P08514); test: flow cytometry, percent of FDPDs stained; batch 2
[6] = target: Glycoprotein IIb (GPIIb, also known as antigen CD41) (UniProt P08514); test: flow cytometry, percent of FDPDs stained; batch 6
[7] = target: Glycoprotein IIb (GPIIb, also known as antigen CD41) (UniProt P08514); test: flow cytometry, percent of FDPDs stained; batch 1
[8] = target: Glycoprotein IIb (GPIIb, also known as antigen CD41) (UniProt P08514); test: flow cytometry, percent of FDPDs stained; batch 4
[9] = target: P-selectin (also called CD62P) (human) (UniProt P16109); test: flow cytometry, percent of CD41-positive FDPDs stained; batch 6
[10] = target: P-selectin (also called CD62P) (human) (UniProt P16109); test: flow cytometry, percent of CD41-positive FDPDs stained; batch 3
[11] = target: P-selectin (also called CD62P) (human) (UniProt P16109); test: flow cytometry, percent of CD41-positive FDPDs stained; batch 1
[12] = target: P-selectin (also called CD62P) (human) (UniProt P16109); test: flow cytometry, percent of CD41-positive FDPDs stained; batch 7
[13] = target: P-selectin (also called CD62P) (human) (UniProt P16109); test: flow cytometry, percent of CD41-positive FDPDs stained; batch 4
[14] = target: P-selectin (also called CD62P) (human) (UniProt P16109); test: flow cytometry, percent of CD41-positive FDPDs stained; batch 2
[15] = target: P-selectin (also called CD62P) (human) (UniProt P16109); test: flow cytometry, percent of CD41-positive FDPDs stained; mean of 7 batches
[16] = target: P-selectin (also called CD62P) (human) (UniProt P16109); test: flow cytometry, percent of CD41-positive FDPDs stained; batch 5
[17] = target: P-selectin (also called CD62P) (human) (UniProt P16109); test: flow cytometry, human apheresis platelets after 20 µM TRAP-6
[18] = target: P-selectin (also called CD62P) (human) (UniProt P16109); test: flow cytometry, human apheresis platelets without TRAP-6
Thrombospondin (TSP1) [19] = target: Thrombospondin (TSP1) (UniProt P07996); test: flow cytometry, rehydrated baked FDPDs, average of lots
Thrombospondin (TSP1) [20] = target: Thrombospondin (TSP1) (UniProt P07996); test: flow cytometry, fresh washed platelets activated with collagen and thrombin
Thrombospondin (TSP1) [21] = target: Thrombospondin (TSP1) (UniProt P07996); test: flow cytometry, resting fresh washed platelets
[22] = target: Von Willebrand factor (vWF) (UniProt P04275); test: flow cytometry, rehydrated baked FDPDs, average of lots
[23] = target: Von Willebrand factor (vWF) (UniProt P04275); test: flow cytometry, fresh washed platelets activated with collagen and thrombin
[24] = target: Von Willebrand factor (vWF) (UniProt P04275); test: flow cytometry, resting fresh washed platelets

Sequence of UniProt P04275 (P04275 764-2813 limits assumed): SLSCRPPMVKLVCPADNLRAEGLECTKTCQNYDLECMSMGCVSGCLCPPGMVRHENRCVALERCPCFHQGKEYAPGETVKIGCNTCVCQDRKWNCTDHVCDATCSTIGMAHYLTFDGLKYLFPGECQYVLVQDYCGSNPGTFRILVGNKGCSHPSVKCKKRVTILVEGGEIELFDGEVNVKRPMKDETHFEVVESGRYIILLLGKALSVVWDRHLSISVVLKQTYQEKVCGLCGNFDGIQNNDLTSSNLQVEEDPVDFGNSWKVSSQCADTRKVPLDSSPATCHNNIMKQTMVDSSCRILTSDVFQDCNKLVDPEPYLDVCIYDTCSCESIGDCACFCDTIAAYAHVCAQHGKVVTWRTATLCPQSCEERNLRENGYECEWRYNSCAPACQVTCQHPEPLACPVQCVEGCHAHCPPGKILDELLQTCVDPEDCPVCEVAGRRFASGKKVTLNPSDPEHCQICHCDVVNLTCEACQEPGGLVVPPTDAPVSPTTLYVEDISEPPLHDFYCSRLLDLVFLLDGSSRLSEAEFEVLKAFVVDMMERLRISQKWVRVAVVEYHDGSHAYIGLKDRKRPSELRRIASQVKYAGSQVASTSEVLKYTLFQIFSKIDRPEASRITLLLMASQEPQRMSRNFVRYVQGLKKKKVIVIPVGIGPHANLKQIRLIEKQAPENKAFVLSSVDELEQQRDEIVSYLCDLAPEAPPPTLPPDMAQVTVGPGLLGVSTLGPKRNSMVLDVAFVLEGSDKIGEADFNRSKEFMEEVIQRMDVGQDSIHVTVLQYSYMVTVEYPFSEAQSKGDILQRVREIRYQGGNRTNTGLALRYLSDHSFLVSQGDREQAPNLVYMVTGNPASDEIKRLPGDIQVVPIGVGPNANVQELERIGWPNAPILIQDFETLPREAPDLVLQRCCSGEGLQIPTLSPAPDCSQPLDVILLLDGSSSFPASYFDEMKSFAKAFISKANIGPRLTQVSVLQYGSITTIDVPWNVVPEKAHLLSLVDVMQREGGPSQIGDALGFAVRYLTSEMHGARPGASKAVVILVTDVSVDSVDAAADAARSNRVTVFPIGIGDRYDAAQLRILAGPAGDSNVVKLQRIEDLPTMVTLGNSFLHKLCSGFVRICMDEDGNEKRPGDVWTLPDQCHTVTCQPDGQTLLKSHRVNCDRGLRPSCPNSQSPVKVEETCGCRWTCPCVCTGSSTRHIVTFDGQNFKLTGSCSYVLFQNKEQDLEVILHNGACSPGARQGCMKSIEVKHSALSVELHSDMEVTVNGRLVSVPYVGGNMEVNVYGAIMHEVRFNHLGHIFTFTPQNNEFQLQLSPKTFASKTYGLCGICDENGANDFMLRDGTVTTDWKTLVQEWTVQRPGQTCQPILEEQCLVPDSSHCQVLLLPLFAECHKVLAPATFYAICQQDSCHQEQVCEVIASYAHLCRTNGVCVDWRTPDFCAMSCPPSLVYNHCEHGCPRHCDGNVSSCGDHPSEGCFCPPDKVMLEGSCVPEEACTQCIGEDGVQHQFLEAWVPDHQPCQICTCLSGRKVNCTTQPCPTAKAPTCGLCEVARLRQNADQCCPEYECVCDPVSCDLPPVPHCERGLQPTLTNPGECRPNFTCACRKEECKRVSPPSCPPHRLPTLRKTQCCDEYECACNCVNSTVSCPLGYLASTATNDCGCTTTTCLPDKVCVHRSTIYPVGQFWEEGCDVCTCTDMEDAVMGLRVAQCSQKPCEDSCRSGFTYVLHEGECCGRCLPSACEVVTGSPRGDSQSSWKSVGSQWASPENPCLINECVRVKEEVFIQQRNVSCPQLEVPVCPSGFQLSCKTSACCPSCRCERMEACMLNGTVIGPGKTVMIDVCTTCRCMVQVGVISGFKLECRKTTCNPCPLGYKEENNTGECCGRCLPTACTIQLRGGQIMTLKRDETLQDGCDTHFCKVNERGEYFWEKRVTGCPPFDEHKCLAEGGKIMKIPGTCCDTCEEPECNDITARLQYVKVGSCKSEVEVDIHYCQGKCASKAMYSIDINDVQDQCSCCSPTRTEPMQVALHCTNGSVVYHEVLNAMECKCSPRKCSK
Sequence of UniProt P08514 (P08514 32-1039 limits assumed): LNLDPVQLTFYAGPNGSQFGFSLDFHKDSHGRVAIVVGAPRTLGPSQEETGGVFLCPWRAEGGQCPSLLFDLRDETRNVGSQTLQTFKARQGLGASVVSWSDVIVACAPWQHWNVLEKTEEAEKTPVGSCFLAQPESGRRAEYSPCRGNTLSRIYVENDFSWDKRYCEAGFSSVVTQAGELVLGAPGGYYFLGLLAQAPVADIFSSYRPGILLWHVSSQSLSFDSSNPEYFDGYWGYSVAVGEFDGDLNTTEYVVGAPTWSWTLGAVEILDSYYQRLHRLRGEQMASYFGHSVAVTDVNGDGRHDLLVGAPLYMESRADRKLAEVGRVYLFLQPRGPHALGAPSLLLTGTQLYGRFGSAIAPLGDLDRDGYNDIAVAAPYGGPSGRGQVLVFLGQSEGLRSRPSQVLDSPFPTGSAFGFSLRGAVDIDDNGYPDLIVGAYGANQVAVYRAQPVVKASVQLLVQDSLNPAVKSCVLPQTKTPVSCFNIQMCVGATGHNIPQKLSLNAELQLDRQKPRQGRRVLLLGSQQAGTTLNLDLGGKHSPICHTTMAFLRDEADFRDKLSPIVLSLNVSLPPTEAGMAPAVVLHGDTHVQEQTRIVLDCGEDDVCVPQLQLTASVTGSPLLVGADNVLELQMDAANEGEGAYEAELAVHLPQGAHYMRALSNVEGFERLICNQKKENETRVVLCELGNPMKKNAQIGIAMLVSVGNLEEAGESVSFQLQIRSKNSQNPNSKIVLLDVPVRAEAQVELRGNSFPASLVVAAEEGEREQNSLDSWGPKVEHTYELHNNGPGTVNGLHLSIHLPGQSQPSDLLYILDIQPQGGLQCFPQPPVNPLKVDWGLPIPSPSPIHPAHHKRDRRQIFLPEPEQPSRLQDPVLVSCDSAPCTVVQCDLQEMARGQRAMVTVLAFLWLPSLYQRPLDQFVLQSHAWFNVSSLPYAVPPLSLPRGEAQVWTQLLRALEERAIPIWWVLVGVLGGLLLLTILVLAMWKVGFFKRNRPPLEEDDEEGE
Sequence of UniProt P16109 (P16109 42-830): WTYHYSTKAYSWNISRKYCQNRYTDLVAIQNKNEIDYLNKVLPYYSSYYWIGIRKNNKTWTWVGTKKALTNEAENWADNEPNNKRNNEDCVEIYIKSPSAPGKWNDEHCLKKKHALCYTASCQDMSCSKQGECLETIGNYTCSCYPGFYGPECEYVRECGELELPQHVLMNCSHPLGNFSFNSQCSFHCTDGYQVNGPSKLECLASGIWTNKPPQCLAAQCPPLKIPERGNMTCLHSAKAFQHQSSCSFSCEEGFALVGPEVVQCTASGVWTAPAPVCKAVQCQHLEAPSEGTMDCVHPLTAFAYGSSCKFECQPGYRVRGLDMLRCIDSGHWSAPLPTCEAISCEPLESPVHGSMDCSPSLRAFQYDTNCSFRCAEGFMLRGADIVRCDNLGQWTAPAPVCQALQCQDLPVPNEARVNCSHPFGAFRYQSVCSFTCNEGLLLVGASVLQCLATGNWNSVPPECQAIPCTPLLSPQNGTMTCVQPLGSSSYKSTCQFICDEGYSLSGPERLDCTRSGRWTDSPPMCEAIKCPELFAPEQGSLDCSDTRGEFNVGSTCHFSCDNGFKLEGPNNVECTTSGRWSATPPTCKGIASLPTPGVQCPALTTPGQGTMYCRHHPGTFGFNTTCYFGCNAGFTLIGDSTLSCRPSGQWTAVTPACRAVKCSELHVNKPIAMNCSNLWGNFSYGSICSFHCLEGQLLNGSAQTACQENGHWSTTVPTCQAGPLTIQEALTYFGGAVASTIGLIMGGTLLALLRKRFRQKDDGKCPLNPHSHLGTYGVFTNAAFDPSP
Sequence of UniProt P07996 (P07996 19-1170 limits assumed): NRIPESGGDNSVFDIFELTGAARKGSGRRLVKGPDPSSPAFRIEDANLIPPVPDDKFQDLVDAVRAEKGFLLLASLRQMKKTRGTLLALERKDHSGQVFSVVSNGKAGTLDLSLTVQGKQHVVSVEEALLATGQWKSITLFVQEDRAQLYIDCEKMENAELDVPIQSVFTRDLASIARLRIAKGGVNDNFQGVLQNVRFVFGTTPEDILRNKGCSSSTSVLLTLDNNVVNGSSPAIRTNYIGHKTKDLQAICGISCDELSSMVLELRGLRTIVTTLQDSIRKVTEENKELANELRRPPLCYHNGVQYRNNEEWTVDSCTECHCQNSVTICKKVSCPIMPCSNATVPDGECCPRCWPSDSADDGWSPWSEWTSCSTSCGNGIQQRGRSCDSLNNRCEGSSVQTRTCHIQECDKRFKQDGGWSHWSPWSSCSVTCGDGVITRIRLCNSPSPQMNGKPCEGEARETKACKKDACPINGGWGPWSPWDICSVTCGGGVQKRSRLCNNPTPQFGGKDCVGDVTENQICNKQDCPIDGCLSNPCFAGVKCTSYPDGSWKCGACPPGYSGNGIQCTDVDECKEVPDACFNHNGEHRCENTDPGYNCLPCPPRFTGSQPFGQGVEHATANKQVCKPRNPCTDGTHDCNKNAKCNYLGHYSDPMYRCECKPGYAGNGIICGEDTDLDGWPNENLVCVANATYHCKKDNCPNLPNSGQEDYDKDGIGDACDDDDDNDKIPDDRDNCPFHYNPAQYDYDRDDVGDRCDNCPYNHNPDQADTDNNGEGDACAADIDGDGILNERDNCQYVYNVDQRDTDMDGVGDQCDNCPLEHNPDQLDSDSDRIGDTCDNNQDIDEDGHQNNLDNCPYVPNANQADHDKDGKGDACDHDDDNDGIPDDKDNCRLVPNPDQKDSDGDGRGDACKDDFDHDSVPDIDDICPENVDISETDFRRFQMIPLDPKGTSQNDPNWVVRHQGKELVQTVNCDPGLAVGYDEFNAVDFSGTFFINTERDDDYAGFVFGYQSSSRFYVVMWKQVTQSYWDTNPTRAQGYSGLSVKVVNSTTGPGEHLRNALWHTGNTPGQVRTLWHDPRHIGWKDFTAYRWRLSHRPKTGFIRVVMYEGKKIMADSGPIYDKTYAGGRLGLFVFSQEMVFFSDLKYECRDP

Substance: anti-CD62P antibody (BD Biosciences Cat. No. 550888)
- CD62 Positivity (%) [9]: 87.3%
- CD62 Positivity (%) [10]: 89.8%
- CD62 Positivity (%) [11]: 94.2%
- CD62 Positivity (%) [12]: 90.7%
- CD62 Positivity (%) [13]: 92.4%
- CD62 Positivity (%) [14]: 93.1%
- CD62 Positivity (%) [15]: 91.4%
- CD62 Positivity (%) [16]: 92.5%

Substance: anti-Thrombospondin-1 (TSP-1) antibody (Santa Cruz Biotech Cat #sc-59887 AF594)
- MFI (Thrombospondin (TSP1) [19]): 91400 MFI
- MFI (Thrombospondin (TSP1) [20]): 3310 MFI
- MFI (Thrombospondin (TSP1) [21]): 1220 MFI

Substance: anti-Von Willebrand Factor antibody (Novus Biologicals Cat #NBP2-54379PE)
- MFI [22]: 14000 MFI
- MFI [23]: 19700 MFI
- MFI [24]: 4770 MFI

Continued, values first:

- CD41 Positivity (%) [1]: 78.5%
- CD41 Positivity (%) [2]: 81.3%
- CD41 Positivity (%) [3]: 85.7%
- CD41 Positivity (%) [4]: 81.5%
- CD41 Positivity (%) [5]: 79.4%
- CD41 Positivity (%) [6]: 84%
- CD41 Positivity (%) [7]: 81.5%
- CD41 Positivity (%) [8]: 78.2%
Substance: anti-CD41 antibody (Beckman Coulter part #IM1416U)

- MFI [17]: 127000 MFI
- MFI [18]: 2350 MFI
Substance: anti-CD62P-PE antibody (BD Pharmingen Cat #550561 Lot #6322976)
